Results as given in patent US7166733B2, “O,O'-Amidomalonate and N,O-Amidomalonate platinum complexes” (priority 2000, dated 2007).
pIC50: −log10 of the molar value.

How the values were obtained:
[1] = test system: B16 melanoma; assay: Antitumor activity in the B16 melanoma model, multi-dose protocol; format: in vivo; conditions: s.c. B16F10 in C57BL/6 mice
Method: (§1) A study was conducted to compare the antitumor activity of poly(HPMA)-GFLG-Ama=Pt=DACH with that of carboplatin in the B16 melanoma model when each agent was administered as an IP injection daily for 5 days (qd×5). The poly(HPMA)-GFLG-Ama=Pt=DACH material was also given at days 15, 16, and 17. Both compounds were given at their respective maximum tolerated (equitoxic) doses on this regimen.
(§2) Female C57BL/6 mice weighing 18–20 g were implanted s.c. with 10^6 B16F10 tumor cells harvested from tissue culture. The size of the resulting tumor was followed individually throughout the study. Tumor mass (in mg) was calculated as (W^2×L)/2, where W is the shorter tumor dimension and L is the longer tumor dimension. Individual treatments were administered when the tumor was 75–100 mg in size. The injection volume was 0.04 mL per gram of body weight, and the drug was administered intraperitoneally. Tumor mass and body weight were measured daily. Data are expressed as the mean±SEM of the tumor mass and are plotted until 50% of the animals in each treatment group have died or been sacrificed due to excessive tumor mass, tumor ulceration, or morbidity. For comparison of the activity of different agents, each administered at its respective maximum tolerated doses (MTD), the MTD is defined as that dose which reproducibly induces no more than 10% (1 out of each 10 animals per group) early toxic deaths not attributable to tumor burden, and which results in a mean maximum body weight loss (i.e., the group mean of the nadir in each individual mouse weight, regardless of the day on which it occurred) of 10–15%, followed by recovery in lost weight.
(§3) A study was conducted to compare the antitumor activity of p(HPMA)-GFLG-C3-Sulf-Ama=Pt=DACH with that of carboplatin in the B16 melanoma model when each agent was administered as an IP injection daily for 5 days (qd×5). Both compounds were given at their respective maximum tolerated (equitoxic) doses on this regimen.
(§4) The methods utilized in this study were identical to those utilized for the p(HPMA)-GFLG-C3-Sulf-Ama=Pt=DACH study of Example 38.

[2] = Maximum tolerated dose on a qd×5 schedule in the B16 melanoma model; format: in vivo; conditions: IP, C57BL/6 mice
Method: as §1, §2, §3, §4

[3] = test system: Bl6FI0 melanoma cells; assay: Clonogenic (colony-formation) assay; format: cell-based, murine; conditions: 7 days incubation
Method: The relative cytotoxic activity of various O,O′—Pt chelate analogs were evaluated in vitro by means of a clonogenic (colony-formation) assay employing a tissue culture of Bl6FI0 melanoma cells. In this way, the activity of the analogs was compared to that of cisplatin and carboplatin. The effect of conversion to an N,O—Pt chelate was also evaluated. Briefly, cells were seeded into culture dishes and allowed to attach. The cultures were incubated for 7 days in medium containing the desired concentration of the test agent. After fixation, the number of cell clusters containing >50 cells was scored as a colony. Each concentration of test agent was assayed in triplicate. The mean number of colonies in each of the triplicate dishes was divided by the mean number of colonies in the control (no test agent) dishes to obtain a percent survival value for each concentration of test agent. The IC50 (concentration resulting in 50% inhibition of growth) of each of the agents was determined by linear regression analysis using the data values directly above and below the 50% survival point.

[4] = Platinum release from PBS; format: physicochemical; conditions: 37° C.
Method: The percent of small platinum species released over time was measured by dissolving about 30 mg of the polymer-platinum conjugate in 15 mL of phosphate buffered saline (10 mM phosphate, 123 mM Cl^−) and incubating the solution at 37° C. in a water bath. At indicated times, 2.0 mL aliquots were transferred to a centrifugal filter with a 3 kDa nominal molecular weight cutoff (Centricon YM-3 from Millipore) and spun until >1.5 mL of filtrate had accumulated. The timed filtrates and the original solution were analyzed for platinum by ICP-OES. The percent of small Pt species released was determined using the formula: ((ppm Pt in filtrate)/(ppm Pt in stock solution))×100.

[5] = Single-dose IV maximum tolerated dose study; format: in vivo; conditions: mice, highest dose with no drug-induced deaths
Excerpt: For these studies, the MTD was defined as the highest dose evaluated in which no mouse deaths resulted from drug-induced toxicity.

[6] = Dependence on pH of the isomer ratio of O,O′—Pt to N,O—Pt chelate (195Pt NMR of timed aliquots); format: physicochemical
Method: The percent of O,O′- and N,O-chelate in timed aliquots of reactions mixtures were determined by removing enough of the reaction mixture (4–15 mL depending on concentration) to give greater than 100 mg of Pt-chelate if only ^195Pt NMR spectroscopy was to be done or about 200 mg if % Pt, and % H2O were also to be determined. The aliquots were purified by ultrafiltration using a Centricon Plus-20 centrifugal filter with a 5 kDa Biomax membrane from Millipore. The charged device was spun at the recommended RCF until less than 1 mL remained. The filtrate was discarded, the retentate was diluted with 15–18 mL water and the sample was centrifuged. This was repeated once more, and the retentate was lyophilized to give the sample for analysis.
^195Pt NMR spectra were obtained from a filtered 0.70 mL solution in 93/7 H2O/D2O in a 5 mm tube. Enough sample (80–120 mg) was used to give a solution that was >50 mM in platinum. The probe was tuned for each sample. A pulse width of 90 degrees, an acquisition time of 10 msec, a spectral window of 100 kHz and no delay was used. The transmitter was tuned to approximately midway between the O,O′—Pt and N,O—Pt chelates shifts (−1896 ppm for cis-diammine Pt and at −2450 for DACH—Pt). Between 50,000 and 1 million transients were typically required to obtain a sufficient (>35:1) s/n ratio for the cis-diammine-Pt and DACH=Pt species, respectively. The resulting FID was increasingly left-shifted until a flat baseline was obtained, a 100 Hz line broadening was applied, and a Fourier fill of 2048 was applied before processing. Integral regions were set and the spectrum's baseline was subjected to a spline fit using VNMR software v6.1. The sample was referenced externally to a 100 mM sample of K2PtCl4 in 95/5H2O/D2O and 100 mM HCl at −1624 ppm. This was also used to determine the 90 degree pulse width and T1.
Four 50 mL Centrifuge tubes were each charged with 1.00 g of p(HPMA)-GFLG-Ama=Pt(NH3)2 (either 100% N,O-chelate) or a 92% O,O-chelate, 8% N,O-chelate mixture. These materials were dissolved in 27 mL Milli-Q water (approx a 4 wt % solution) and adjusted to the pH ranges desired using 1 M NaOH or 5% HClO4 as appropriate. The samples were then heated, with stirring, in a 38° C. water bath and maintained within their specified pH ranges. Timed aliquots were taken and frozen until a suitable time at which point the solutions were concentrated by centrifugal ultrafiltration (one spin down at 4800 rpm, 30° C.) and then transferred to an NMR tube. A small amount of D2O was added to each tube and the ^195Pt NMR spectra were recorded.

[7] = Example 38 study, IP qd×5 at MTD (polymer also days 15, 16, 17)
[8] = Example 39 study, IP qd×5 at MTD
[9] = pH 5.0–5.5, 38° C., 100 mM ClO4^−, 1 h
[10] = pH 5.0–5.5, 38° C., 100 mM ClO4^−, 5 h
[11] = pH 5.0–5.5, 38° C., 100 mM ClO4^−, 8 h
[12] = pH 5.0–5.5, 38° C., 100 mM ClO4^−, 22 h
[13] = pH 5.0–5.5, 38° C., 100 mM Cl^−, 1 h
[14] = pH 5.0–5.5, 38° C., 100 mM Cl^−, 5 h
[15] = pH 5.0–5.5, 38° C., 100 mM Cl^−, 8 h
[16] = pH 5.0–5.5, 38° C., 100 mM Cl^−, 22 h

N.N.O=C([O-])C1(C(=O)[O-])CCC1.[Pt+2] [Carboplatin, reference compound]
inhibition of tumor growth [1, 7]: modest inhibition of tumor growth | inhibition of tumor growth [1, 8]: very little inhibition of tumor growth | maximum tolerated dose [2]: 60 mg/kg | maximum tolerated dose, equivalent in Pt [2]: 32 mg Pt/kg | pIC50 [3]: 5.62

N.N.[Cl][Pt][Cl] [Cisplatin, cis-diamminedichloroplatinum(II), reference compound]
pIC50 [3]: 6.30

p(HPMA)-GFLG-Ama=Pt=DACH
inhibition of tumor growth [1, 7]: tumor growth was substantially slowed and prolonged | maximum tolerated dose [2]: 100 mg Pt/kg

p(HPMA)-GFLG-Ama═Pt═(NH3)2, 45 kDa, O,O′—Pt
pIC50 [3]: 6.00

p(HPMA)-GFLG-Ama═Pt═(NH3)2, 90 kDa, O,O′—Pt
pIC50 [3]: 6.05

poly(HPMA)-GFLG-Ama=Pt(NH3)2, N,O—Pt chelate, >351 kDa [Example 14]
Pt release in PBS ([4]; 3 hours): 0.68% | Pt release in PBS ([4]; 24 hours): 2.28%

poly(HPMA)-GFLG-Ama=Pt(NH3)2O,O′—Pt chelate [Example 3]
maximum tolerated dose (MTD) [5]: 80–100 mg PVkg | pIC50 [3]: 5.96 to 6.10 | N,O— chelate ([6]; pH 3.0–3.5, 38° C., 1 h): 0% | O,O— chelate ([6]; pH 3.0–3.5, 38° C., 1 h): 100% | N,O— chelate ([6]; pH 3.0–3.5, 38° C., 5 h): 3% | O,O— chelate ([6]; pH 3.0–3.5, 38° C., 5 h): 97% | N,O— chelate ([6]; pH 3.0–3.5, 38° C., 20 h): 2% | O,O— chelate ([6]; pH 3.0–3.5, 38° C., 20 h): 98% | N,O— chelate ([6]; pH 4.0–4.5, 38° C., 1 h): 25% | O,O— chelate ([6]; pH 4.0–4.5, 38° C., 1 h): 75% | N,O— chelate ([6]; pH 4.0–4.5, 38° C., 5 h): 21% | O,O— chelate ([6]; pH 4.0–4.5, 38° C., 5 h): 79% | N,O— chelate ([6]; pH 4.0–4.5, 38° C., 20 h): 28% | O,O— chelate ([6]; pH 4.0–4.5, 38° C., 20 h): 72% | N,O— chelate [6, 9]: 31% | O,O— chelate [6, 9]: 69% | N,O— chelate [6, 10]: 56% | O,O— chelate [6, 10]: 44% | N,O— chelate [6, 11]: 67% | O,O— chelate [6, 11]: 33% | N,O— chelate [6, 12]: 60% | O,O— chelate [6, 12]: 40% | N,O— chelate [6, 13]: 31% | O,O— chelate [6, 13]: 69% | N,O— chelate [6, 14]: 54% | O,O— chelate [6, 14]: 46% | N,O— chelate [6, 15]: 68% | O,O— chelate [6, 15]: 32% | N,O— chelate [6, 16]: 68% | O,O— chelate [6, 16]: 32% | N,O— chelate ([6]; pH 5.0–5.5, 38° C., 1 h): 33% | O,O— chelate ([6]; pH 5.0–5.5, 38° C., 1 h): 67% | N,O— chelate ([6]; pH 5.0–5.5, 38° C., 5 h): 49% | O,O— chelate ([6]; pH 5.0–5.5, 38° C., 5 h): 51% | N,O— chelate ([6]; pH 5.0–5.5, 38° C., 20 h): 65% | O,O— chelate ([6]; pH 5.0–5.5, 38° C., 20 h): 35% | N,O— chelate ([6]; pH 6.0–6.5, 38° C., 1 h): 43% | O,O— chelate ([6]; pH 6.0–6.5, 38° C., 1 h): 57% | N,O— chelate ([6]; pH 6.0–6.5, 38° C., 5 h): 66% | O,O— chelate ([6]; pH 6.0–6.5, 38° C., 5 h): 34% | N,O— chelate ([6]; pH 6.0–6.5, 38° C., 20 h): 91% | O,O— chelate ([6]; pH 6.0–6.5, 38° C., 20 h): 9%

poly(HPMA)-GFLG-Ama=Pt=DACH, N,O—Pt chelate [Example 6]
pIC50 [3]: > 5.40

poly(HPMA)-GFLG-C3-Sulf-Ama=Pt(NH3)2 N,O-chelate [Example 28]
Pt release in PBS ([4]; 3 hours): 3.02% | Pt release in PBS ([4]; 24 hours): 5.44%

poly(HPMA)-GFLG-NH(CH2)3SO2-Ama=Pt=DACH N,O-chelate [Example 29]
inhibition of tumor growth [1, 8]: more marked inhibition in tumor growth | Pt release in PBS ([4]; 3 hours): 2.12% | Pt release in PBS ([4]; 24 hours): 4.54% | maximum tolerated dose [2]: 75 mg Pt/kg

poly(HPMA)-GG-Ama=Pt(NH3)2 N,O Chelate [Example 17]
Pt release in PBS ([4]; 3 hours): 1.4% | Pt release in PBS ([4]; 24 hours): 4.6%

poly(HPMA)-GG-Ama=Pt=DACH N,O-Chelate [Example 18]
Pt release in PBS ([4]; 3 hours): 1.3% | Pt release in PBS ([4]; 24 hours): 5.5%

poly(HPMA)-GG-NH(CH2)3SO2Ama=Pt=DACH, Approx. 22 kDa [Example 25]
Pt release in PBS ([4]; 3 hours): 1.0% | Pt release in PBS ([4]; 24 hours): 1.93%

poly(HPMA)-GGGG-Ama=Pt=1R,2R-DACH N,O-Chelate [Example 21]
Pt release in PBS ([4]; 3 hours): 0.972% | Pt release in PBS ([4]; 24 hours): 3.173%

poly(HPMA)=GFLG-Ama=Pt=DACH, O,O′—Pt chelate [Example 5]
Pt release in PBS ([4]; 3 hours): 6.0% | Pt release in PBS ([4]; 24 hours): 10.9% | pIC50 [3]: 6.00
